In experiment [1] the target is CH505.M21D8gp120/293F. The experiment in a line: direct-binding ELISA. A general note: In an ELISA, binding on a coated surface is turned into a signal by an enzyme label.
Experiment [2] deals with CH505.M7D8gp120/293F. The experiment in a line: direct-binding ELISA.
The target in experiment [3] is CH505.M9D8gp120/293F. The experiment in a line: direct-binding ELISA.
The target in experiment [4] is CH505.M5D8gp120293F. Put plainly: direct-binding ELISA.
Experiment [5] deals with CH505.M11D8gp120/293F. Put plainly: direct-binding ELISA.
Experiment [6] concerns the target CH505.TF mutant gp120 M6 (HIV-1). Put plainly: direct-binding ELISA.
The target of experiment [7] is CH505.TF mutant gp120 M20 (HIV-1). The experiment in a line: direct-binding ELISA.
Experiment [8] addresses CH505.M19D8gp120. The experiment in a line: direct-binding ELISA.
Experiment [9] addresses CH505.TF mutant gp120 M8 (HIV-1). The experiment in a line: direct-binding ELISA.
The target of experiment [10] is CH505.M10D8gp120. Put plainly: direct-binding ELISA.
For experiment [11], the target named is CH505.M21D8gp120/293F. Put plainly: ELISA.
Experiment [12] addresses CH505.M7D8gp120/293F. The experiment in a line: ELISA.
Experiment [13] deals with CH505.M9D8gp120/293F. Put plainly: ELISA.
Experiment [14] has as its target CH505.M5D8gp120293F. Put plainly: ELISA.
In a further experiment the target is CH505w030.20D8gp120/293F. Put plainly: ELISA.
The target of experiment [15] is CH505.M11D8gp120/293F. Put plainly: ELISA.
The target of a further experiment is CH505.w30.12D8gp120. The experiment in a line: ELISA.
The target in a further experiment is CH0505_CON D7gp120/293i. Put plainly: ELISA.
Experiment [16] has as its target CH505.TF mutant gp120 M6 (HIV-1). The experiment in a line: ELISA.
Experiment [17] addresses CH505.TF mutant gp120 M20 (HIV-1). The experiment in a line: ELISA.
For another experiment, the target named is CH505w020.14D8gp120. The experiment in a line: ELISA.
The target of experiment [18] is CH505.M19D8gp120. Put plainly: ELISA.
Experiment [19] deals with CH505.TF mutant gp120 M8 (HIV-1). Put plainly: ELISA.
Another experiment deals with CH505w136.B18D8gp120. The experiment in a line: ELISA.
The target in experiment [20] is CH505.M10D8gp120. Put plainly: ELISA.
Experiment [21] addresses Histones. The experiment in a line: AtheNA, Ab 6.25 ug/ml.
The target in experiment [22] is SSB (UniProt P05455). Put plainly: AtheNA, Ab 6.25 ug/ml.
SSB, sequence (P05455 whole entry): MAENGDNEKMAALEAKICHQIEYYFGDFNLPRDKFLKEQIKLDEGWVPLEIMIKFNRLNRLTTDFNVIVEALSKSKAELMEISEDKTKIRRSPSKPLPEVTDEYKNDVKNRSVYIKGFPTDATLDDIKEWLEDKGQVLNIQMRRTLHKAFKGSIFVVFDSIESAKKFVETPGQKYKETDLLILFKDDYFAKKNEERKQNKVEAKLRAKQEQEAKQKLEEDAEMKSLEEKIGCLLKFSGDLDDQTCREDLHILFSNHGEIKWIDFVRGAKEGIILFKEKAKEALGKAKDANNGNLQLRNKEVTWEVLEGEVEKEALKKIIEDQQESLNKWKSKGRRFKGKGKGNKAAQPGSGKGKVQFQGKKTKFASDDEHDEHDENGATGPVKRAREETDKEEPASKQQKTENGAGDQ
The target in experiment [23] is Jo-1 (UniProt P12081). Put plainly: AtheNA, Ab 6.25 ug/ml.
Jo-1, sequence (P12081 whole entry): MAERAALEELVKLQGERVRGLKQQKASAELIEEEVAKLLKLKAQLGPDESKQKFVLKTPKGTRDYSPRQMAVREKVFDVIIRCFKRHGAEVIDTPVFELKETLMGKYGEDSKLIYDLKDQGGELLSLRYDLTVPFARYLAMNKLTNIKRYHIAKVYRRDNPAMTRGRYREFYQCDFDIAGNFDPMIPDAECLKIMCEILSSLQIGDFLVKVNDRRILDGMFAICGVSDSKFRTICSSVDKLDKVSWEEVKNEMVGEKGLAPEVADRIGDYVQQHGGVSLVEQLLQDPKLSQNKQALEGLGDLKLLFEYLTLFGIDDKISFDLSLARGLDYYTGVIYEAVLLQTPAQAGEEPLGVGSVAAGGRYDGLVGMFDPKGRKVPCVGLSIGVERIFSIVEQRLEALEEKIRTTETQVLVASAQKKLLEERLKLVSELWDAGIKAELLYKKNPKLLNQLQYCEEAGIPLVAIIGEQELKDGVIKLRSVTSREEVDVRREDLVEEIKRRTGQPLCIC
Experiment [24] concerns the target Centromere B (UniProt P07199). Put plainly: AtheNA, Ab 6.25 ug/ml.
In experiment [25] the target is Sm (Smith antigen). The experiment in a line: AtheNA, Ab 6.25 ug/ml.
The target of experiment [26] is SSA. The experiment in a line: AtheNA, Ab 6.25 ug/ml.
The target in experiment [27] is Scl-70 (UniProt P11387). The experiment in a line: AtheNA, Ab 6.25 ug/ml.
Scl-70, sequence (P11387 whole entry): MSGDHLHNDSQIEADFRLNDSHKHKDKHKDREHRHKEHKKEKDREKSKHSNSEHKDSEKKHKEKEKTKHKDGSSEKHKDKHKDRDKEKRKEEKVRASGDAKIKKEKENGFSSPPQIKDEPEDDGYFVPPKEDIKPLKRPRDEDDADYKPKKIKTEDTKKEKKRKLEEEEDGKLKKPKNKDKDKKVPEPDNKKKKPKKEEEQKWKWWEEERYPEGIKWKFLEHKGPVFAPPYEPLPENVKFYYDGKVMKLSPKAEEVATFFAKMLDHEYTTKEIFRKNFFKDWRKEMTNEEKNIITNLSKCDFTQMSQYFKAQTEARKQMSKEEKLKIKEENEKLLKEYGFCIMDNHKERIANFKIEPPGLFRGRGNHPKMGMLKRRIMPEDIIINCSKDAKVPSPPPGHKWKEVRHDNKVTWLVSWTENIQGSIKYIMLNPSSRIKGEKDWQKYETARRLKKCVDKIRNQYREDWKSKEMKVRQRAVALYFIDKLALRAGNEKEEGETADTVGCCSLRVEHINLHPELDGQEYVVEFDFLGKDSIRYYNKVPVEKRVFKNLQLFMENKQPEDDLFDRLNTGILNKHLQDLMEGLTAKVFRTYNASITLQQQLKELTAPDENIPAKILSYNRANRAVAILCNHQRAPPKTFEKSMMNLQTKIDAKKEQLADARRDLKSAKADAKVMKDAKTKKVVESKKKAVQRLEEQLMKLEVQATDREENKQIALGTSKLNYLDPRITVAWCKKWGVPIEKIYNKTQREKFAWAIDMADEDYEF
In experiment [28] the target is RNP (ribonucleoprotein). The experiment in a line: AtheNA, Ab 6.25 ug/ml.
In experiment [29] the target is Histones. Put plainly: AtheNA, Ab 25 ug/ml.
Experiment [30] concerns the target SSB (UniProt P05455). The experiment in a line: AtheNA, Ab 25 ug/ml.
In experiment [31] the target is Jo-1 (UniProt P12081). The experiment in a line: AtheNA, Ab 25 ug/ml.
The target of experiment [32] is Centromere B (UniProt P07199). The experiment in a line: AtheNA, Ab 25 ug/ml.
Centromere B, sequence (P07199 whole entry): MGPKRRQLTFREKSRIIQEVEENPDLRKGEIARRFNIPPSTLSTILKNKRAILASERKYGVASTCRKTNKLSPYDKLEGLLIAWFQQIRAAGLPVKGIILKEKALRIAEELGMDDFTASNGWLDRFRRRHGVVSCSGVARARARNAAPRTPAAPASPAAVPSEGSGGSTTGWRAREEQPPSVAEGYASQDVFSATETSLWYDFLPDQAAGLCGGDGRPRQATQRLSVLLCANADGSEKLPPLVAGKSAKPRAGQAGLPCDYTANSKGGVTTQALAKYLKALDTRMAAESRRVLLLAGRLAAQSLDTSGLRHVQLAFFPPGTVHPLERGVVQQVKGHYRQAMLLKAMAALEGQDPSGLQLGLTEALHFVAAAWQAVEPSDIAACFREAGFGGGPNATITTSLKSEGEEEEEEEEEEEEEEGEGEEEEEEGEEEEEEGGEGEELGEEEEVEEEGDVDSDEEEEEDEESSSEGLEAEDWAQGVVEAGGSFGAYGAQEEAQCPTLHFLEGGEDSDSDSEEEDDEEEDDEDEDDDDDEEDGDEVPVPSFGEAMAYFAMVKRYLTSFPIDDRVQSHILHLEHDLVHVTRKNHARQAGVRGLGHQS
The target of experiment [33] is Sm (Smith antigen). The experiment in a line: AtheNA, Ab 25 ug/ml.
Experiment [34] deals with SSA. Put plainly: AtheNA, Ab 25 ug/ml.
Experiment [35] addresses Scl-70 (UniProt P11387). The experiment in a line: AtheNA, Ab 25 ug/ml.
Experiment [36] addresses RNP (ribonucleoprotein). Put plainly: AtheNA, Ab 25 ug/ml.
Experiment [37] deals with Histones. Put plainly: AtheNA, Ab 12.5 ug/ml.
Experiment [38] has as its target SSB (UniProt P05455). Put plainly: AtheNA, Ab 12.5 ug/ml.
Experiment [39] addresses Jo-1 (UniProt P12081). The experiment in a line: AtheNA, Ab 12.5 ug/ml.
Experiment [40] has as its target Centromere B (UniProt P07199). The experiment in a line: AtheNA, Ab 12.5 ug/ml.
The target in experiment [41] is Sm (Smith antigen). The experiment in a line: AtheNA, Ab 12.5 ug/ml.
The target of experiment [42] is SSA. Put plainly: AtheNA, Ab 12.5 ug/ml.
In experiment [43] the target is Scl-70 (UniProt P11387). The experiment in a line: AtheNA, Ab 12.5 ug/ml.
The target in experiment [44] is RNP (ribonucleoprotein). The experiment in a line: AtheNA, Ab 12.5 ug/ml.
Experiment [45] has as its target HIV-1 CH505 transmitted/founder gp120 Env (HIV-1). The experiment in a line: SPR, antibody captured on anti-human Ig Fc, gp120 injected. Background: SPR reads the build-up and loss of mass on a sensor chip optically.

Regarding CH103 (antibody), the LogAUC with CH505.M21D8gp120/293F [1] is 11.4; with CH505.M7D8gp120/293F [2] it was 11.1; with CH505.M9D8gp120/293F [3], 11.6; with CH505.M5D8gp120293F [4], 9.84; with CH505.M11D8gp120/293F [5], 13.4; in [6] it was 13.1. Also, the LogAUC in [7] came to 12.2; with CH505.M19D8gp120 [8], 13.3; in experiment [9] it was 11.5; with CH505.M10D8gp120 [10], 13.2.

With CH235 IA3 (antibody), the LogAUC with CH505.M21D8gp120/293F [11] amounted to 0; with CH505.M7D8gp120/293F [12], 0; with CH505.M9D8gp120/293F [13], 0; with CH505.M5D8gp120293F [14] it was 7.01; with CH505w030.20D8gp120/293F it was 1.16; with CH505.M11D8gp120/293F [15], 0. The LogAUC came to 0 with CH505.w30.12D8gp120; 5.09 with CH0505_CON D7gp120/293i; 2.96 in [16]; 0 in experiment [17]; 2.72 in the experiment with CH505w020.14D8gp120; 0.11 with CH505.M19D8gp120 [18]. The LogAUC in experiment [19] amounted to 0; in the experiment with CH505w136.B18D8gp120, 0; in the experiment with CH505.M10D8gp120 [20] it was 0.08. Besides, the AtheNA signal (relative luminescence units) in the experiment with Histones [21] was 5; with SSB [22], 3; with Jo-1 [23] it was 2; with Centromere B [24] it was 9; in the experiment with Sm (Smith antigen) [25], 7; in the experiment with SSA [26] it was 12. Also, the AtheNA signal (relative luminescence units) with Scl-70 [27] is 2; with RNP (ribonucleoprotein) [28] it was 4; with Histones [29], 12; with SSB [30], 9; with Jo-1 [31], 8; with Centromere B [32], 27. Further, the AtheNA signal (relative luminescence units) worked out at 13 with Sm (Smith antigen) [33]; 10 with SSA [34]; 4 with Scl-70 [35]; 7 with RNP (ribonucleoprotein) [36]; 7 with Histones [37]; 6 in the experiment with SSB [38]. Besides, the AtheNA signal (relative luminescence units) was found to be 3 in the experiment with Jo-1 [39]; 15 with Centromere B [40]; 12 in the experiment with Sm (Smith antigen) [41]; 12 in the experiment with SSA [42]; 3 in the experiment with Scl-70 [43]; 5 in the experiment with RNP (ribonucleoprotein) [44].

As for CH104 (antibody), the LogAUC with CH505.M21D8gp120/293F [1] amounted to 11.2; with CH505.M7D8gp120/293F [2], 9.73; with CH505.M9D8gp120/293F [3] it was 10.8; with CH505.M5D8gp120293F [4] it was 9.02; with CH505.M11D8gp120/293F [5] it was 12; in experiment [6], 11.6. Besides, the LogAUC in experiment [7] is 10.8; with CH505.M19D8gp120 [8], 11.3; in [9] it was 10.1; with CH505.M10D8gp120 [10], 11.7.

As usually defined, the Kd is the concentration at which binding is half-saturated. In general, koff refers to a measure of how fast the partners let go of each other. In general, kon refers to the second-order rate constant of association. A lower kon goes with slow association. As for CH235 IA4 (antibody), the Kd in experiment [45] was found to be 30.6 µM. In addition, in [45], the koff was determined as 0.0881 s⁻¹. The substance also returned a kon in experiment [45] of 2900 M⁻¹ s⁻¹. Besides, the LogAUC with CH505.M21D8gp120/293F [11] was determined as 0; in the experiment with CH505.M7D8gp120/293F [12], 0; with CH505.M9D8gp120/293F [13], 0; with CH505.M5D8gp120293F [14] it was 1.36; with CH505w030.20D8gp120/293F it was 0.24; in the experiment with CH505.M11D8gp120/293F [15] it was 0. The LogAUC (with CH505.w30.12D8gp120; with CH0505_CON D7gp120/293i; in experiment [16]; in experiment [17]; in the experiment with CH505w020.14D8gp120; with CH505.M19D8gp120 [18]) was 0 each time. Moreover, the LogAUC in experiment [19] came to 0; in the experiment with CH505w136.B18D8gp120 it was 0; with CH505.M10D8gp120 [20], 0.12. Moreover, the AtheNA signal (relative luminescence units) with Histones [21] is 4; in the experiment with SSB [22] it was 5; with Jo-1 [23], 4; with Centromere B [24] it was 5; with Sm (Smith antigen) [25], 6; in the experiment with SSA [26], 11. Also, the AtheNA signal (relative luminescence units) with Scl-70 [27] is 2; with RNP (ribonucleoprotein) [28], 3; in the experiment with Histones [29], 9; in the experiment with SSB [30], 4; with Jo-1 [31] it was 2; in the experiment with Centromere B [32] it was 10. The AtheNA signal (relative luminescence units) was determined as 12 in the experiment with Sm (Smith antigen) [33]; 12 with SSA [34]; 2 with Scl-70 [35]; 5 with RNP (ribonucleoprotein) [36]; 6 with Histones [37]; 3 in the experiment with SSB [38]. Also, the AtheNA signal (relative luminescence units) with Jo-1 [39] turned out to be 3; in the experiment with Centromere B [40], 5; in the experiment with Sm (Smith antigen) [41] it was 6; with SSA [42] it was 11; with Scl-70 [43], 2; with RNP (ribonucleoprotein) [44], 4.

Consider CH103 UCA (antibody), for which the Kd in [45] amounted to 0.227 µM. The substance further yielded a kon in experiment [45] of 37000 M⁻¹ s⁻¹. The LogAUC with CH505w030.20D8gp120/293F is 0; with CH505.w30.12D8gp120, 0; with CH0505_CON D7gp120/293i, 4.3; with CH505w020.14D8gp120 it was 0.33; with CH505w136.B18D8gp120, 0; with CH505.M21D8gp120/293F [1], 0. The LogAUC was 0.44 in the experiment with CH505.M7D8gp120/293F [2]; 0.12 with CH505.M9D8gp120/293F [3]; 0 with CH505.M5D8gp120293F [4]; 2.62 with CH505.M11D8gp120/293F [5]; 5.23 in experiment [6]; 0 in [7]. Moreover, the results for the LogAUC (in the experiment with CH505.M19D8gp120 [8]; in [9]; in the experiment with CH505.M10D8gp120 [10]) were 1.74, 0 and 1.35, respectively.

Regarding CH235UA/293i (antibody), the AtheNA signal (relative luminescence units) in the experiment with Histones [21] worked out at 2; with SSB [22] it was 5; with Jo-1 [23], 3; in the experiment with Centromere B [24], 2; with Sm (Smith antigen) [25], 5; with SSA [26] it was 10. For the same substance, the AtheNA signal (relative luminescence units) turned out to be 3 with Scl-70 [27]; 2 in the experiment with RNP (ribonucleoprotein) [28]; 3 with Histones [29]; 3 with SSB [30]; 5 in the experiment with Jo-1 [31]; 3 in the experiment with Centromere B [32]. Further, the AtheNA signal (relative luminescence units) turned out to be 6 with Sm (Smith antigen) [33]; 9 with SSA [34]; 3 with Scl-70 [35]; 4 with RNP (ribonucleoprotein) [36]; 4 with Histones [37]; 4 in the experiment with SSB [38]. For the same substance, the AtheNA signal (relative luminescence units) with Jo-1 [39] stood at 5; in the experiment with Centromere B [40] it was 3; with Sm (Smith antigen) [41], 6; with SSA [42], 9; with Scl-70 [43], 3; in the experiment with RNP (ribonucleoprotein) [44] it was 3.

(Values after patent US10450368.)
